Data as given in patent publication US20200140568A1 (XUANZHU BIOPHARMACEUTICAL, published 2020).

biological target: T1, HER2 extracellular domain (human, UniProt P04626 23-652); test: ELISA, HER2 ECD coated on plate
T1 construct: extracellular domain; also called ErbB2; HER2 ECD
Procedure: (§1) The binding potency of antibodies to the antigen HER2 was determined using an ELISA assay. The HER2 extracellular domain was coated overnight on 96-well plates by adding 0.2 ug/100 ul/well of HER2 extracellular domain solution. The plates were washed 6 times with PBS, and blocked with 3% BSA and incubated for 2 hours. The plates were again washed 6 times with PBS. After 1 hour of binding, the plates were washed 6 times with PBS. Horse radish peroxidase (HRP) conjugated secondary antibody was added and incubated for 1 hr. HRP substrate TMB was added to each well and luminescence was read on plate reader. The data were then fitted into 4-parameter sigmoidal curve to generate IC50. Each sample was run in triplicate.

Row | Binder | binding result
1 | mAb T2 (antibody, human IgG1, kappa, V domains shown, Pertuzumab heavy chain with a mutated trastuzumab light chain) VH: EVQLVESGGGLVQPGGSLRLSCAASGFTFTDYTMDWVRQAPGKGLEWVADVNPNSGGSIYNQRFKGRFTLSVDRSKNTLYLQMNSLRAEDTAVYYCARNLGPSFYFDYWGQGTLVTVSS VL: not shown | binds
2 | mAb T43 (antibody, V domains shown) VH: EVQLVESGGGLVQPGGSLRLSCAASGFTFADYTMDWVRQAPGKGLEWVADVNPNSGASIYNQRFKGRFTLSVDRSKNTLYLQMNSLRAEDTAVYYCARNLGPSFYFDYWGQGTLVTVSS VL: DIQMTQSPSSLSASVGDRVTITCRASQDVSTAVAWYQQKPGKAPKLLIYSASFLYYGVPSRFSGSRSGTDFTLTISSLQPEDFATYYCQQHYTWPPTFGQGTKVEIKR | binds
3 | mAb T26 (antibody, V domains shown) VH: EVQLVESGGGLVQPGGSLRLSCAASGFTFADYTMDWVRQAPGKGLEWVADVNPNSGASIYNQRFKGRFTLSVDRSKNTLYLQMNSLRAEDTAVYYCARNLGPSFYFDYWGQGTLVTVSS VL: DIQMTQSPSSLSASVGDRVTITCKASQDVSIGVAWYQQKPGKAPKLLIYSASYRYTGVPSRFSGSGSGTDFTLTISSLQPEDFATYYCQQYYIYPYTFGQGTKVEIKR | binds
4 | mAb T9 (antibody, human IgG1, kappa, V domains shown, Pertuzumab heavy chain with a mutated trastuzumab light chain) VH: EVQLVESGGGLVQPGGSLRLSCAASGFTFTDYTMDWVRQAPGKGLEWVADVNPNSGGSIYNQRFKGRFTLSVDRSKNTLYLQMNSLRAEDTAVYYCARNLGPSFYFDYWGQGTLVTVSS VL: not shown | binds
5 | mAb T3 (antibody, human IgG1, kappa, V domains shown, Pertuzumab heavy chain with a mutated trastuzumab light chain) VH: EVQLVESGGGLVQPGGSLRLSCAASGFTFTDYTMDWVRQAPGKGLEWVADVNPNSGGSIYNQRFKGRFTLSVDRSKNTLYLQMNSLRAEDTAVYYCARNLGPSFYFDYWGQGTLVTVSS VL: not shown | binds
6 | mAb T10 (antibody, human IgG1, kappa, V domains shown, Pertuzumab heavy chain with a mutated trastuzumab light chain) VH: EVQLVESGGGLVQPGGSLRLSCAASGFTFTDYTMDWVRQAPGKGLEWVADVNPNSGGSIYNQRFKGRFTLSVDRSKNTLYLQMNSLRAEDTAVYYCARNLGPSFYFDYWGQGTLVTVSS VL: not shown | binds
7 | mAb T4 (antibody, human IgG1, kappa, V domains shown, Pertuzumab heavy chain with a mutated trastuzumab light chain) VH: EVQLVESGGGLVQPGGSLRLSCAASGFTFTDYTMDWVRQAPGKGLEWVADVNPNSGGSIYNQRFKGRFTLSVDRSKNTLYLQMNSLRAEDTAVYYCARNLGPSFYFDYWGQGTLVTVSS VL: not shown | binds
8 | mAb T8 (antibody, human IgG1, kappa, V domains shown, Pertuzumab heavy chain with a mutated trastuzumab light chain) VH: EVQLVESGGGLVQPGGSLRLSCAASGFTFTDYTMDWVRQAPGKGLEWVADVNPNSGGSIYNQRFKGRFTLSVDRSKNTLYLQMNSLRAEDTAVYYCARNLGPSFYFDYWGQGTLVTVSS VL: not shown | binds
9 | mAb T25 (antibody, V domains shown, Residue 56 counted along the entry is also G) VH: EVQLVESGGGLVQPGGSLRLSCAASGFTFTDYTMDWVRQAPGKGLEWVADVNPNSGASIYNQRFKGRFTLSVDRSKNTLYLQMNSLRAEDTAVYYCARNLGPSFYFDYWGQGTLVTVSS VL: DIQMTQSPSSLSASVGDRVTITCKASQDVSIGVAWYQQKPGKAPKLLIYSASYRYTGVPSRFSGSGSGTDFTLTISSLQPEDFATYYCQQYYIYPYTFGQGTKVEIKR | binds
10 | mAb T5 (antibody, human IgG1, kappa, V domains shown, Pertuzumab heavy chain with a mutated trastuzumab light chain) VH: EVQLVESGGGLVQPGGSLRLSCAASGFTFTDYTMDWVRQAPGKGLEWVADVNPNSGGSIYNQRFKGRFTLSVDRSKNTLYLQMNSLRAEDTAVYYCARNLGPSFYFDYWGQGTLVTVSS VL: not shown | binds
11 | mAb T7 (antibody, human IgG1, kappa, V domains shown, Pertuzumab heavy chain with a mutated trastuzumab light chain) VH: EVQLVESGGGLVQPGGSLRLSCAASGFTFTDYTMDWVRQAPGKGLEWVADVNPNSGGSIYNQRFKGRFTLSVDRSKNTLYLQMNSLRAEDTAVYYCARNLGPSFYFDYWGQGTLVTVSS VL: not shown | binds

biological target: T1, HER2 extracellular domain; test: ELISA, HER2 ECD coated on plate; T12 is the weaker comparator
Procedure: as §1

Row | Binder | binding result
12 | mAb T12 (antibody, V domains shown) VH: not shown VL: DIQMTQSPSSLSASVGDRVTITCKASQDVSIGVAWYQQKPGKAPKLLIYSASYRYTGVPSRFSGSGSGTDFTLTISSLQPEDFATYYCQQYYIYPYTFGQGTKVEIKR | binds
